Here are results for five molecules from publication PMC12412572, “Natural Allelic Variations in IbCHYR1–IbZnFR Complex Regulate Fusarium Root Rot Resistance in Sweet Potato”.

The target in this data set is T1, IbZnFR (CCCH-type zinc-finger protein) (Ipomoea batatas, UniProt A0A6M2VA70 1-565).
T1 sequence: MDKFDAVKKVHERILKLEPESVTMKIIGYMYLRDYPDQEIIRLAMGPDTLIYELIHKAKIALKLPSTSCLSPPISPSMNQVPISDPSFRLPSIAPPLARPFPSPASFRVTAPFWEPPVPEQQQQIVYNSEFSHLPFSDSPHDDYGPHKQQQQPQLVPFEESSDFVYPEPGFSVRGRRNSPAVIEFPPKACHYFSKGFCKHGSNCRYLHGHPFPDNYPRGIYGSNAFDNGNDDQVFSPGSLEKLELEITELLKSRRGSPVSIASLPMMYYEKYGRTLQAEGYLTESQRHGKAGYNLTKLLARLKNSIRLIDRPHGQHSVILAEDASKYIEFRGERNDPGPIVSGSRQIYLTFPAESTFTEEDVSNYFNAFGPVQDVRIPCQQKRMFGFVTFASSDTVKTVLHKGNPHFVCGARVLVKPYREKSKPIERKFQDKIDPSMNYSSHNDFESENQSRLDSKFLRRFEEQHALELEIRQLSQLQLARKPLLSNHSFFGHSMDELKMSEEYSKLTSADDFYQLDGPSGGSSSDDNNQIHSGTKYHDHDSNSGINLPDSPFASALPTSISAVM
Briefly: EMSA; LightShift Chemiluminescent EMSA Kit (Thermo), manufacturer's instructions; buffer, salt, pH and temperature not stated. The following applies: protein: recombinant; tags: His (pET-28a); label: 5' biotin; blunt. (In EMSA bound probe runs differently from free probe, usually more slowly.)

B1: IbCOMT promoter wt probe (dsDNA)
DNA 1: AAACCGTTCTCTCTCTTCTTCTTCATCTTC
DNA 2: GAAGATGAAGAAGAAGAGAGAGAACGGTTT
In the case of B1, the binding result is listed as “binds”.

B2: IbPR5 promoter wt probe (dsDNA)
DNA 1: ATTGTACTAAAAGGGAGAGGATACAAGGTT
DNA 2: AACCTTGTATCCTCTCCCTTTTAGTACAAT
For B2, the binding result is listed as “binds”.

B3: IbMDAR4 promoter wt probe (dsDNA)
DNA 1: ACATTTACCCGGGAGAACGGATAACG
DNA 2: CGTTATCCGTTCTCCCGGGTAAATGT
For B3, the binding result was “binds”.

B4: IbMRL7L promoter wt probe (dsDNA)
DNA 1: CTTCTTATCCCTCTAACTTTCCTACA
DNA 2: TGTAGGAAAGTTAGAGGGATAAGAAG
Regarding B4, the binding result is on record as “binds”.

B5: IbCSLE1 promoter wt probe (dsDNA)
DNA 1: ATAGTCTTTGTAGGGAGACACAGACACCAT
DNA 2: ATGGTGTCTGTGTCTCCCTACAAAGACTAT
As for B5, the binding result was “binds”.
